{"source": "patent US20170247465A1", "about": "“COMBINATION THERAPY FOR TREATMENT OF CANCER” (OncoMed Pharmaceuticals, Inc., priority 2014, published 2017)", "molecules": {"B1": {"name": "OMP-18R5: anti-FZD antibody, IgG2, also known as vantictumab; heavy chain SEQ ID NO:3, light chain SEQ ID NO:4 (antibody)", "heavy": "EVQLVESGGGLVQPGGSLRLSCAASGFTFSHYTLSWVRQAPGKGLEWVSVISGDGSYTYYADSVKGRFTISSDNSKNTLYLQMNSLRAEDTAVYYCARNFIKYVFANWGQGTLVTVSSASTKGPSVFPLAPCSRSTSESTAALGCLVKDYFPEPVTVSWNSGALTSGVHTFPAVLQSSGLYSLSSVVTVPSSNFGTQTYTCNVDHKPSNTKVDKTVERKCCVECPPCPAPPVAGPSVFLFPPKPKDTLMISRTPEVTCVVVDVSHEDPEVQFNWYVDGVEVHNAKTKPREEQFNSTFRVVSVLTVVHQDWLNGKEYKCKVSNKGLPAPIEKTISKTKGQPREPQVYTLPPSREEMTKNQVSLTCLVKGFYPSDIAVEWESNGQPENNYKTTPPMLDSDGSFFLYSKLTVDKSRWQQGNVFSCSVMHEALHNHYTQKSLSLSPGK", "light": "DIELTQPPSVSVAPGQTARISCSGDNIGSFYVHWYQQKPGQAPVLVIYDKSNRPSGIPERFSGSNSGNTATLTISGTQAEDEADYYCQSYANTLSLVFGGGTKLTVLGQPKAAPSVTLFPPSSEELQANKATLVCLISDFYPGAVTVAWKADSSPVKAGVETTTPSKQSNNKYAASSYLSLTPEQWKSHRSYSCQVTHEGSTVEKTVAPTECS"}}, "assay_type_in_all_cases": "in vivo, NOD/SCID mice", "key": {"[1]": {"system": "OMP-C28 colon tumor cells", "test": "OMP-C28 colon tumor xenograft, staggered dosing of Wnt inhibitors and nab-paclitaxel (Example 10)", "settings": "Wnt pathway inhibitor 25 mg/kg every two weeks, administered 2 days prior to nab-paclitaxel 15 mg/kg once a week, i.p.; versus single agents; FIG. 8", "method": "FIG. 8A-8B. Inhibition of colon tumor growth in vivo by a Wnt pathway inhibitor in combination with a taxane using a staggered dosing schedule. FIG. 8A. OMP-C28 colon tumor cells were injected subcutaneously into NOD/SCID mice. Mice were treated with control antibody (-•-), OMP-18R5 (-▴-), nab-paclitaxel (-▪-), or a combination of OMP-18R5 and nab-paclitaxel, where OMP-18R5 was administered 2 days prior to administration of nab-paclitaxel (-⋄-). FIG. 8B. OMP-C28 colon tumor cells were injected subcutaneously into NOD/SCID mice. Mice were treated with control antibody (-•-), OMP-54F28 (-▴-), nab-paclitaxel (-▪-), or a combination of OMP-54F28 and nab-paclitaxel, where OMP-54F28 was administered 2 days prior to administration of nab-paclitaxel (-⋄-). OMP-18R5, OMP-54F28 and control were administered at 25 mg/kg and nab-paclitaxel was administered at 15 mg/kg. OMP-18R5, OMP-54F28 and control were administered once every two weeks, paclitaxel was administered once a week, and all agents were administered intraperitoneally. Data is shown as tumor volume (mm^3) over days post treatment.\nSingle cell suspensions of xenograft OMP-C28 colon tumor cells were injected subcutaneously into 6-8 week old NOD/SCID mice. […] Tumor growth was monitored and tumor volumes were measured with electronic calipers at the indicated time points. Data are expressed as mean±S.E.M."}, "[2]": {"system": "OMP-LU77 lung tumor cells", "test": "OMP-LU77 lung tumor xenograft, staggered dosing of vantictumab and paclitaxel (Example 6)", "settings": "vantictumab 25 mg/kg administered two days prior to paclitaxel 15 mg/kg, every other week; versus same day, paclitaxel alone; FIG. 4", "method": "FIG. 4. Inhibition of lung tumor growth in vivo by a Wnt pathway inhibitor in combination with a taxane using a staggered dosing schedule. OMP-LU77 lung tumor cells were injected subcutaneously into NOD/SCID mice. […] Vantictumab was administered at 25 mg/kg and paclitaxel at 15 mg/kg. Agents were administered every other week and administered intraperitoneally. Data is shown as tumor volume (mm^3) over days post treatment.\nOMP-LU77 is a patient-derived non-small cell lung (NSCLC) tumor. Single cell suspensions of xenograft OMP-LU77 lung tumor cells (50,000 cells) were injected subcutaneously into NOD/SCID mice. Tumors were allowed to grow 37 days until they had reached an average volume of approximately 200 mm^3. Tumor-bearing mice were randomized into 4 groups (n=8-9 per group). […] Antibodies were dosed at 25 mg/kg, administered every other week. Paclitaxel was dosed at 15 mg/kg, also every other week. Tumor growth was monitored and tumor volumes were measured on the indicated days post-treatment. Data are expressed as mean±SEM."}, "[3]": {"system": "OMP-B90 breast tumor cells", "test": "OMP-B90 breast tumor xenograft, staggered dosing of Wnt inhibitors and paclitaxel (Example 9)", "settings": "Wnt pathway inhibitor 25 mg/kg every two weeks, administered 2 days prior to paclitaxel 10 mg/kg once a week, i.p., FIG. 7", "method": "FIG. 7A-7B. Inhibition of breast tumor growth in vivo by a Wnt pathway inhibitor in combination with a taxane using a staggered dosing schedule. FIG. 7A. OMP-B90 breast tumor cells were injected subcutaneously into NOD/SCID mice. Mice were treated with control antibody (-•-), paclitaxel (-▴-), a combination of OMP-18R5 and paclitaxel, where OMP-18R5 was administered on the same day as paclitaxel (-□-), or a combination of OMP-18R5 and paclitaxel, where OMP-18R5 was administered 2 days prior to administration of paclitaxel (-⋄-). FIG. 7B. OMP-B90 breast tumor cells were injected subcutaneously into NOD/SCID mice. Mice were treated with control antibody (-•-), OMP-54F28 (-▪-), paclitaxel (-▴-), a combination of OMP-54F28 and paclitaxel, where OMP-54F28 was administered on the same day as paclitaxel (-□-), or a combination of OMP-54F28 and paclitaxel, where OMP-54F28 was administered 2 days prior to administration of paclitaxel (-⋄-). OMP-18R5, OMP-54F28 and control antibody were administered at 25 mg/kg and paclitaxel was administered at 10 mg/kg. […]\nSingle cell suspensions of xenograft OMP-B90 breast tumor cells were injected subcutaneously into 6-8 week old NOD/SCID mice. […] Tumor growth was monitored and tumor volumes were measured with electronic calipers at the indicated time points. Data are expressed as mean±S.E.M."}}}
{"molecule": "B1", "values": [{"measurement": "inhibition of tumor growth (tumor volume)", "setting": "[1]", "result": "inhibited tumor growth of the OMP-C28 colon tumor cells to a greater extent than either the Wnt pathway inhibitors or nab-paclitaxel alone"}, {"measurement": "inhibition of tumor growth (tumor volume)", "setting": "[2]", "result": "significantly better at inhibiting tumor growth of the OMP-LU77 lung tumor cells than any of the other dosing regimens"}, {"measurement": "regression of established tumors", "setting": "[3]", "result": "induced a regression of the established breast tumors"}, {"measurement": "inhibition of tumor growth (tumor volume)", "setting": "[3]; versus other dosing regimens", "result": "significantly better at inhibiting tumor growth of the OMP-B90 breast tumor cells than any of the other dosing regimens"}]}
